Experimental data taken from the supplement of paper PMC10567573.
± gives the standard deviation.

Test: protein stability index of a GFP-peptide fusion (GPS, HEK-293T) (PSI 1-6); higher = more stable
[1] = treatment: DMSO, c terminus: a fixed tail appended
[2] = treatment: MLN4924 1 uM, 8 h, c terminus: a fixed tail appended
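Further: 24-mer peptide tiles fused after GFP, lentivirally expressed, FACS-sorted into six equal bins by GFP/DsRed ratio, decoded by Illumina sequencing, PSI is the read-weighted mean bin number.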

Sequence: GGTLFSLEEGSSFWNQGLTWKVLF [CLCN6]
- protein stability index [1]: 2.7 ± 0.46
- protein stability index [2]: 2.6 ± 0.81

Sequence: PETLTNLRKGYLFMYNLVQFLGFS [HACD3]
- protein stability index [1]: 2.34 ± 0.56
- protein stability index [2]: 2.04 ± 0.34

Sequence: QGYTINVPWNQVGMRDADYIAAFL [HDAC6]
- protein stability index [1]: 2.25 ± 0.22
- protein stability index [2]: 2.46 ± 0.37

Sequence: KKWGINTYKCTKQLLSERFGRGSR [ARFIP2]
- protein stability index [1]: 2.65 ± 0.28
- protein stability index [2]: 2.86 ± 0.53

Sequence: ANISIANKYDNTCLMIAAYKGHTD [FEM1B]
- protein stability index [1]: 2.75 ± 0.17
- protein stability index [2]: 2.98 ± 0.32

Sequence: WDLVSASVVCRELGFGSAKEAVTG [LOXL2]
- protein stability index [1]: 2.58 ± 0.31
- protein stability index [2]: 2.61 ± 0.089

Sequence: SPSVMRLVHTQEPGEWLELLLEPG [ALKBH7]
- protein stability index [1]: 2.83 ± 0.23
- protein stability index [2]: 3 ± 0.24

Sequence: RFYYSEDDHGDECSYTDLLPQDEG [KCNA4]
- protein stability index [1]: 5.07 ± 0.19
- protein stability index [2]: 4.88 ± 0.27

Sequence: NTHVSQVFNLFRTMGLRHLPVVNA [CLCN6]
- protein stability index [1]: 2.57 ± 0.39
- protein stability index [2]: 2.12 ± 0.15

Sequence: QPWHAVMDIESLSVFTEPNRHFYR [FBXO33]
- protein stability index [1]: 2.26 ± 0.18
- protein stability index [2]: 2.11 ± 0.13

Sequence: DENLDRMVPISKQPKEKIQAIIES [NOL4L]
- protein stability index [1]: 4.88 ± 0.38
- protein stability index [2]: 4.83 ± 0.21

Sequence: KMLLMYCAKMEKDGYGMTPLLSAS [FEM1C]
- protein stability index [1]: 2.56 ± 0.67
- protein stability index [2]: 2.11 ± 0.46

Sequence: RTTRGLDPLFGMCEKFLQEVDFFQ [INTS4]
- protein stability index [1]: 2.05 ± 0.37
- protein stability index [2]: 2.23 ± 0.26

Sequence: AERLGVTFFEVSPLCNFNIIESFT [RAB40A]
- protein stability index [1]: 2.32 ± 0.65
- protein stability index [2]: 2.5 ± 0.46

Sequence: DTQYGSSVDIWAIGCVFAELLTGQ [CDKL4]
- protein stability index [1]: 2.8 ± 0.59
- protein stability index [2]: 2.37 ± 0.46

Sequence: AFEFKKPVRPVSRGCLHSHGLQEG [CDC25A]
- protein stability index [1]: 2.87 ± 0.28
- protein stability index [2]: 2.82 ± 0.23

Sequence: KVRALEEANADLEVKIRDWHLKQS [KRT13]
- protein stability index [1]: 4.05 ± 0.2
- protein stability index [2]: 4.22 ± 0.13

Sequence: LVQDLVDSLKFAVLMWLLTYVGAL [RTN1]
- protein stability index [1]: 2.94 ± 0.2
- protein stability index [2]: 2.85 ± 0.26

Sequence: TVASMMHRQETVDCLKKFNARRKL [CAMK2D]
- protein stability index [1]: 3.17 ± 0.15
- protein stability index [2]: 3.73 ± 0.72

Sequence: SLLFVVMFIPETKGCSLEQISMEL [SLC2A12]
- protein stability index [1]: 2.93 ± 0.53
- protein stability index [2]: 3.2 ± 0.13

Sequence: VINPMLNPIIYSFRNPDVQSAIWR [OR3A1]
- protein stability index [1]: 2.06 ± 0.51
- protein stability index [2]: 2.24 ± 0.19

Sequence: GLAANGALQRLDLRNNQISHKGAE [LRRC45]
- protein stability index [1]: 4.23 ± 0.4
- protein stability index [2]: 4.57 ± 0.18

Sequence: LASPHTVAAVLEAVAQTAHLPADS [RSAD1]
- protein stability index [1]: 3.61 ± 0.33
- protein stability index [2]: 3.83 ± 0.25

Sequence: AHKCLECGKCFSQNTHLTRHQRTH [ZNF263]
- protein stability index [1]: 4.92 ± 0.14
- protein stability index [2]: 5 ± 0.3

Sequence: RDGYGMTPLLAASVTGHTNIVEYL [FEM1A]
- protein stability index [1]: 2.92 ± 0.22
- protein stability index [2]: 2.93 ± 0.24

Sequence: MVPGTRHSAVLRDLRSGTLYSLTL [TNXB]
- protein stability index [1]: 2.91 ± 0.58
- protein stability index [2]: 2.03 ± 0.52

Sequence: CSTNKPEGYRVSQALRENTYPFLA [FAF2]
- protein stability index [1]: 2.54 ± 0.2
- protein stability index [2]: 2.53 ± 0.4

Sequence: YLKKNHEEEMNALRGQVGGEINVE [KRT17]
- protein stability index [1]: 4.39 ± 0.23
- protein stability index [2]: 4.75 ± 0.12

Sequence: GMNGQMLCNLGKERFLELAPDFVG [ETS2]
- protein stability index [1]: 2.89 ± 0.32
- protein stability index [2]: 2.91 ± 0.21

Sequence: EKMMQEAEKLKAQGEYSRKLEERF [CCDC89]
- protein stability index [1]: 3.48 ± 0.24
- protein stability index [2]: 3.56 ± 0.52

Sequence: IRESDPEQAPAPGEATAAPAPLCG [TBX6]
- protein stability index [1]: 5.32 ± 0.53
- protein stability index [2]: 5.31 ± 0.2

Sequence: TRGHAISILFGFWTSFICDTYIVL [SMIM2]
- protein stability index [1]: 2.73 ± 0.4
- protein stability index [2]: 2.78 ± 0.46

Sequence: TALKKWMFLQLVPSWNGSLKQLLT [GMCL1]
- protein stability index [1]: 2.74 ± 0.56
- protein stability index [2]: 2.43 ± 0.43

Sequence: DITAYLFGFFFGRTPLIKLSPKKT [CDS1]
- protein stability index [1]: 3.11 ± 0.64
- protein stability index [2]: 2.73 ± 0.46

Sequence: DQPVMAVKTGEDGSNLDDAKGLAE [FANCE]
- protein stability index [1]: 5.44 ± 0.14
- protein stability index [2]: 5.51 ± 0.26

Sequence: LEQCSASIEVGGSVNFDGETIEGA [FEM1C]
- protein stability index [1]: 5.4 ± 0.3
- protein stability index [2]: 5.14 ± 0.57

Sequence: TRWLNSGRGDEASEEGQNGSSPKS [ADD1]
- protein stability index [1]: 5.4 ± 0.12
- protein stability index [2]: 5.44 ± 0.24

Sequence: LFQLSCSSTQLNELLLFAVGFIMA [OR3A1]
- protein stability index [1]: 2.71 ± 0.45
- protein stability index [2]: 2.98 ± 0.87

Sequence: SPNSTPAKTIDTSPPVDLFATASA [SNAP91]
- protein stability index [1]: 4.8 ± 0.18
- protein stability index [2]: 4.67 ± 0.15

Sequence: LPEKACQLDSRYWRITNAKGDVEE [FBXO3]
- protein stability index [1]: 4.47 ± 0.11
- protein stability index [2]: 4.49 ± 0.52

Sequence: YNIATRRKALKNPSEEYGKILEVV [MLH1]
- protein stability index [2]: 2.74 ± 0.48

Sequence: VVFHCEFSSERGPRMCRYVRERDR [CDC25A]
- protein stability index [1]: 2.41 ± 0.56
- protein stability index [2]: 2.4 ± 0.3

Sequence: IKDQGGAGEGLVRSANGFPYREDE [MAP2]
- protein stability index [1]: 5.13 ± 0.3
- protein stability index [2]: 5.18 ± 0.28

Sequence: RLVVQRCSGQKWMIRNWIKHARH [GALNT9]
- protein stability index (treatment: DMSO, c terminus: native): 3.21 ± 0.92
- protein stability index (treatment: MLN4924 1 uM, 8 h, c terminus: native): 2.69 ± 0.65

Sequence: PQDYKKRLSVELTSSLFRTEPMAW [CTNNB1]
- protein stability index [1]: 2.67 ± 0.24
- protein stability index [2]: 2.8 ± 0.21

Sequence: LDMDDGTLSFIVDGQYMGVAFRGL [SPSB1]
- protein stability index [1]: 2.61 ± 0.67
- protein stability index [2]: 2.32 ± 0.31

Sequence: IDREVDLMMRGVKHHNLEGLRKRI [IQUB]
- protein stability index [1]: 3.29 ± 0.32
- protein stability index [2]: 3.62 ± 0.27

Sequence: AEGNNQAPGEEEEEEEEATNTHPP [CHGA]
- protein stability index [1]: 5.35 ± 0.43
- protein stability index [2]: 5.61 ± 0.34

Sequence: SGRGTGRGGGGGGGGGAPRGRYGP [SRSF1]
- protein stability index [1]: 4.79 ± 0.24
- protein stability index [2]: 4.83 ± 0.15

Sequence: AAIKVNDSVPFHLGWNSTERSLRL [MYORG]
- protein stability index [1]: 2.61 ± 0.16
- protein stability index [2]: 2.81 ± 0.38

Sequence: GSKQYSAAIAFTLALFSHLVNHVN [SMG5]
- protein stability index [1]: 3.39 ± 0.34
- protein stability index [2]: 3.14 ± 0.43

Sequence: LEAAEVILEHAHRGEQTTSQVSWE [FCHSD1]
- protein stability index [1]: 3.63 ± 0.58
- protein stability index [2]: 4.25 ± 0.79

Sequence: TSEQAPSSAPRDVQARMLSSTTIL [PTPRD]
- protein stability index [1]: 4.08 ± 0.15
- protein stability index [2]: 4.03 ± 0.38

Sequence: YILLVGYPPFWDEDQHRLYQQIKA [CAMK2D]
- protein stability index [1]: 2.46 ± 0.099
- protein stability index [2]: 2.54 ± 0.67

Sequence: YVRLVCKDVRAPSRPAVGPPQPGC [ZSWIM9]
- protein stability index [1]: 2.22 ± 0.23
- protein stability index [2]: 2.4 ± 0.27

Sequence: ESTTVVTTQSAEVGAAETTLTELR [KRT18]
- protein stability index [1]: 5.37 ± 0.076
- protein stability index [2]: 5.29 ± 0.22

Sequence: RRLQEVLGVQTGGPGGRRAGEPGH [DYRK1B]
- protein stability index [1]: 4.12 ± 0.3
- protein stability index [2]: 4.18 ± 0.26

Sequence: AGQLMGFFKGIDQDIERGVQSEIF [LYSMD4]
- protein stability index [1]: 2.71 ± 0.33
- protein stability index [2]: 2.75 ± 0.34

Sequence: KQPNCSSLFKLKPLSNKTATDDTG [PLD5]
- protein stability index [1]: 4.46 ± 0.13
- protein stability index [2]: 4.772 ± 0.045

Sequence: SWEVVRNPLIASSFSLVKLVLRRQ [C22orf31]
- protein stability index [1]: 2.52 ± 0.53
- protein stability index [2]: 2.21 ± 0.28

Sequence: QSPDEKPLVALDTDSDDDFDMSRY [FAM219A]
- protein stability index [1]: 5.44 ± 0.26
- protein stability index [2]: 5.46 ± 0.23

Sequence: KPSKELKPLLGSAVLGLLLVLAAV [MYORG]
- protein stability index [1]: 2.4 ± 0.25
- protein stability index [2]: 2.34 ± 0.28

Sequence: QKTSGQHMIQGAGSLEKALPIIQS [DLC1]
- protein stability index [1]: 3.86 ± 0.26
- protein stability index [2]: 4.18 ± 0.097

Sequence: YSYASTHRLMTDARRRVCHTEDFQ [CPXM2]
- protein stability index [1]: 2.91 ± 0.37
- protein stability index [2]: 3.44 ± 0.36

Sequence: NCSGPAPAAKPDPDGGRADEWACE [P3H4]
- protein stability index [1]: 5.36 ± 0.17
- protein stability index [2]: 5.44 ± 0.16
